From patent US20250341517A1 (published 2025)
Ends that are not written are not given here. FAM = carboxyfluorescein (FAM) fluorescent label

Experiments:
[1] = target: T1, Anti-CRP antibody(r); assay: labelled peptide on antibody immobilised on microplate; antigen CRP
T1 construct: also called rabbit IgG (CRP)

[2] = target: T2, Anti-HRP antibody(r); assay: labelled peptide on antibody immobilised on microplate; antigen HRP
T2 construct: Rabbit IgG, immobilised on a microplate; also called rabbit anti-HRP antibodies; anti-HRP antibody from a rabbit

[3] = target: T3, Anti-hCG antibody(m); assay: labelled peptide on antibody immobilised on microplate; antigen hCG
T3 construct: also called mouse IgG (hCG)

[4] = target: T2, Anti-HRP antibody(r); assay: labelled peptide on immobilised rabbit anti-HRP antibody, papain cleavage
[5] = target: T4, Anti-HBsAg antibody(g); assay: labelled peptide on antibody immobilised on microplate; antigen HBsAg
T4 construct: also called anti-HBsAg antibodies from goats; goat IgG (HBsAg)

[6] = target: T5, C-reactive protein (UniProt P02741 19-224); assay: labelled peptide on protein immobilised on microplate; fluorescence at bottom
T5 construct: also called CRP
T5 sequence (looked up): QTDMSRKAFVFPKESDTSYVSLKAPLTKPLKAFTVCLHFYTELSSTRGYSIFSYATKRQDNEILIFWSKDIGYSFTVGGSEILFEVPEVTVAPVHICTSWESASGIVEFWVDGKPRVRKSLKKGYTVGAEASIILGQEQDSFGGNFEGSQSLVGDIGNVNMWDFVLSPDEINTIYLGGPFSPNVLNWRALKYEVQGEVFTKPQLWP

[7] = target: protein-A (UniProt P38507 37-477); assay: as above
[8] = target: T6, BSA (UniProt P02769 25-607); assay: as above
T6 construct: also called bovine serum albumin
T6 sequence (P02769 25-607 limits assumed): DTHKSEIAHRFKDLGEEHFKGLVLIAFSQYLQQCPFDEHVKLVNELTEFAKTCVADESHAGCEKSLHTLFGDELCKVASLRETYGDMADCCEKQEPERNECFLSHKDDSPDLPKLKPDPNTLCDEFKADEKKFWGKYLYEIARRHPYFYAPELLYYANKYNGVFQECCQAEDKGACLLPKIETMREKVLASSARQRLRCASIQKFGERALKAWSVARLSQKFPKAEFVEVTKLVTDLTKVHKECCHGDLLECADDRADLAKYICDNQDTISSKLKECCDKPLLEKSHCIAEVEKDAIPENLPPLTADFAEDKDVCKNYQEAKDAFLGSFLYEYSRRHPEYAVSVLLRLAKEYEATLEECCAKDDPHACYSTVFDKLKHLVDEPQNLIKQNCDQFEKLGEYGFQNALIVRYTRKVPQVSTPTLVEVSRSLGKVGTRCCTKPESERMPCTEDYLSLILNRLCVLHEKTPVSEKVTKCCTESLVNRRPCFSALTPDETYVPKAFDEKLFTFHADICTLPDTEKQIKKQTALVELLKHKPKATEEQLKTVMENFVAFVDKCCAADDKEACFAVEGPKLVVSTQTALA

[9] = target: T7, anti-Inf-A binding antibody; assay: dissociation of labelled peptide from anti-Inf-A antibody on treatment with Inf-A; fluorescence
T7 construct: also called anti-Inf-A antibody; anti-inf A antibody

[10] = target: T8, anti-Inf-B binding antibody; assay: dissociation of labelled peptide from anti-Inf-B antibody on treatment with Inf-B; fluorescence
T8 construct: also called anti-Inf-B antibody

[11] = target: T2, Anti-HRP antibody(r); assay: fluorescence in solution against HRP concentration (0.3 to 100 µM); peptide on immobilised rabbit anti-HRP antibody

B1: L2 peptide (peptide)
peptide: {FAM}-VYYCFQGSHVPFTK
notes: Synthetic 14-mer homologous to the FR3 or FR4 region of the light chain; also called L2 switching peptide; second peptide compound L2
With B1 the “change (%) of fluorescence at bottom (B) of microplate” value (shortened to “change (%) of fluorescence at bottom”) [1] was -44.9%, the “change (%) of fluorescence in solution (S)” value (shortened to “change (%) … (S)”) [1] was 883% and the “fluorescence intensity at bottom (B) of microplate after antigen binding” value [1] was 11200. For the same binder, the “fluorescence intensity at bottom (B) of microplate before antigen binding” value [1] was 20400, the “fluorescence intensity in solution (S) after antigen binding” value [1] was 32200 and the “fluorescence intensity in solution (S) before antigen binding” value [1] was 3270. For the same binder, the “change (%) of fluorescence at bottom” value [2] was -74.5%, the “change (%) … (S)” value [2] was 597% and the “fluorescence intensity at bottom (B) of microplate after antigen binding” value [2] was 3210. For the same binder, the “fluorescence intensity at bottom (B) of microplate before antigen binding” value [2] was 12600, the “fluorescence intensity in solution (S) after antigen binding” value [2] was 16100 and the “fluorescence intensity in solution (S) before antigen binding” value [2] was 2320. For the same binder, the “change (%) of fluorescence at bottom” value [3] was -90.7%, the “change (%) … (S)” value [3] was 456% and the “fluorescence intensity at bottom (B) of microplate after antigen binding” value [3] was 3070. The “fluorescence intensity at bottom (B) of microplate before antigen binding” value [3] was 33200, the “fluorescence intensity in solution (S) after antigen binding” value [3] was 9400 and the “fluorescence intensity in solution (S) before antigen binding” value [3] was 1690. The “decrease of fluorescence intensity at the bottom of the microplate after papain treatment” value [4] was 72.5%, the “increase of fluorescence intensity in the solution after papain treatment” value [4] was 2450% and the “change (%) of fluorescence at bottom” value [5] was -64.8%. For the same binder, the “change (%) … (S)” value [5] was 574%, the “fluorescence intensity at bottom (B) of microplate after antigen binding” value [5] was 9860 and the “fluorescence intensity at bottom (B) of microplate before antigen binding” value [5] was 28000. The “fluorescence intensity in solution (S) after antigen binding” value [5] was 15400, the “fluorescence intensity in solution (S) before antigen binding” value [5] was 2280 and the binding result [6] was “no binding”. The binding result [7] was “no binding”, the binding result [8] was “no binding” and the “relative change in fluorescence signal” value [9] was 225%. For the same binder, the “relative change in fluorescence signal” value [10] was 151% and the Kd [11] was 1480 nM.
